Results as given in US20070020327A1.
Read-outs that look alike come from different tables or passages of the source. Blank lines part the entries; values can stand above or below the binder they belong to.

Assays:
[1] = molecular target: HLA-A*0201 (purified HLA class I molecule) (human); assay: competition with 125I-labelled standard peptide for purified HLA, gel filtration
[2] = molecular target: HLA-A*0201 (human); assay: competition binding to purified HLA, 125I-labelled standard peptide, gel filtration; ratio = IC50 standard / IC50 test peptide
[3] = molecular target: HLA-A*0201 (human); assay: competition with 125I-labelled standard peptide for purified HLA, gel filtration; ratio = IC50 standard / IC50 test peptide
[4] = molecular target: HLA-A*0203 (human); assay: competition with 125I-labelled standard peptide for purified HLA, gel filtration; conditions: for binding affinity ratio: scale: ratio
[5] = molecular target: HLA-A*0202 (human); assay: as above
[6] = molecular target: HLA-A*0206 (human); assay: as above
[7] = molecular target: HLA-A*0201 (human); assay: as above; conditions: for binding affinity ratio: scale: ratio
[8] = molecular target: HLA-A*0301 (human); assay: as above
[9] = remark: other sources report otherwise
[10] = remark: other sources report otherwise, scale: ratio

binding affinity ratio (IC50 of standard peptide / IC50 of test peptide) [1]: 0.0001
Binder: LVHPQWVLTA (modifications not checked) [PSA peptide … (position 50, 10 amino acids)]

binding affinity ratio [2]: 0.0001
Binder: DAVKVMDLPT (modifications not checked) [… (PSA, position 130, 10 amino acids)]

binding affinity ratio (IC50 of standard peptide / IC50 of test peptide) [1]: 0.001
Binder: MALDVYNGLL (modifications not checked) [PAP peptide … (position 298, 10 amino acids)]

binding affinity ratio (ratio to standard peptide) [3]: 0.0001
Binder: PTQEPALGT (modifications not checked) [PSA peptide …, position 138, 9 amino acids]

binding affinity ratio (IC50 of standard peptide / IC50 of test peptide) [1]: 0.0001
Binder: NLLHETDSA (modifications not checked) [PSM peptide … (position 3, 9 amino acids)]

binding affinity ratio [2]: 0.0002
Binder: DLFGIWSKV (modifications not checked) [… (PAP, position 201, 9 amino acids)]

binding affinity ratio (ratio to standard peptide) [3]: 0.0002
Binder: QIPSYKKLI (modifications not checked) [PAP peptide …, position 276, 9 amino acids]

binding affinity ratio (IC50 of standard peptide / IC50 of test peptide) [1]: 0.0001
Binder: LVHPQWVLTAA (modifications not checked) [Kallikrein (hK2) peptide … (position 54, 11 amino acids)]

binding affinity ratio (IC50 of standard peptide / IC50 of test peptide) [4, 9]: 0.04
Binder: NMSLLKHQSL (modifications not checked) [Kallikrein 102 …]

binding affinity ratio (IC50 of standard peptide / IC50 of test peptide) [1]: 0.0002
Binder: NLNGAGDPLT (modifications not checked) [PSM peptide … (position 260, 10 amino acids)]

binding affinity ratio (ratio to standard peptide) [3]: 0.0001
Binder: QLAGAKGVI (modifications not checked) [PSM peptide …, position 218, 9 amino acids]

binding affinity ratio (ratio to standard peptide) [3]: 0.0001
Binder: QVRGGMVFEL (modifications not checked) [PSM peptide …, position 578, 10 amino acids]

binding affinity ratio (IC50 of standard peptide / IC50 of test peptide) [5, 9]: 0.01 | binding affinity ratio (IC50 of standard peptide / IC50 of test peptide) [6, 9]: 0.0006
Binder: PAKITDVVKV (modifications not checked)

binding affinity ratio (IC50 of standard peptide / IC50 of test peptide) [1]: 0.0001
Binder: LVHPQWVL (modifications not checked) [PSA peptide LVHPQWVL (position 50, 8 amino acids)]

binding affinity ratio (ratio to standard peptide) [3]: 0.0006
Binder: QAAAETLSEV (modifications not checked) [PSM peptide …, position 740, 10 amino acids]

binding affinity ratio [2]: 0.0003
Binder: DLHVISNDV (modifications not checked) [… (PSA, position 171, 9 amino acids)]

binding affinity ratio (IC50 of standard peptide / IC50 of test peptide) [1]: 0.0002
Binder: NAQLAGAKGV (modifications not checked) [PSM peptide … (position 216, 10 amino acids)]

binding affinity ratio (IC50 of standard peptide / IC50 of test peptide) [1]: 0.0001
Binder: LVHPQWVLT (modifications not checked) [Kallikrein (hK2) peptide … (position 54, 9 amino acids)]

binding affinity ratio (ratio to standard peptide) [3]: 0.0001
Binder: QVSHSFPHPL (modifications not checked) [PSA peptide …, position 87, 10 amino acids]

binding affinity ratio [7, 9]: 0.01 | binding affinity ratio [5, 10]: 0.001
Binder: SVGCTGAVPLI (modifications not checked) [Kallikrein (hK2) peptide … (position 11, 11 amino acids)]

binding affinity ratio (IC50 of standard peptide / IC50 of test peptide) [8]: 0.0003
Binder: LGEYIRKRYR (modifications not checked)

binding affinity ratio (IC50 of standard peptide / IC50 of test peptide) [1]: 0.0001
Binder: LVHPQWVLTA (modifications not checked) [Kallikrein (hK2) peptide … (position 54, 10 amino acids)]

binding affinity ratio (ratio to standard peptide) [3]: 0.0001
Binder: QVHPQKVTKFM (modifications not checked) [PSA peptide …, position 182, 11 amino acids]

binding affinity ratio (IC50 of standard peptide / IC50 of test peptide) [1]: 0.0001
Binder: LVHNLTKEL (modifications not checked) [PSM peptide … (position 473, 9 amino acids)]

binding affinity ratio (IC50 of standard peptide / IC50 of test peptide) [8]: 0.4
Binder: KSLYESWTK (modifications not checked) [… (PSM, position 491)]

binding affinity ratio (IC50 of standard peptide / IC50 of test peptide) [8]: 0.007
Binder: MSLLKNRFLR (modifications not checked) [… (PSA, position 99)]

binding affinity ratio (IC50 of standard peptide / IC50 of test peptide) [1]: 0.0002
Binder: MTKLRELSEL (modifications not checked) [PAP peptide … (position 232, 10 amino acids)]

binding affinity ratio (IC50 of standard peptide / IC50 of test peptide) [1]: 0.0001
Binder: LVHPQWVLTAA (modifications not checked) [PSA peptide … (position 50, 11 amino acids)]

binding affinity ratio (IC50 of the standard peptide / IC50 of the test peptide) [7]: -0.0001 | binding affinity ratio (IC50 of the standard peptide / IC50 of the test peptide) [5]: 0.0009 | binding affinity ratio (IC50 of the standard peptide / IC50 of the test peptide) [4]: 0.0003 | binding affinity ratio (IC50 of the standard peptide / IC50 of the test peptide) [6]: 0.0003
Binder: YASGWGSI (modifications not checked) [Kallikrein 153 peptide YASGWGSI]

binding affinity ratio (ratio to standard peptide) [3]: 0.0002
Binder: QVYIRSTDV (modifications not checked) [PAP peptide …, position 101, 9 amino acids]

binding affinity ratio (ratio to standard peptide) [3]: 0.0001
Binder: QVWLGRHNL (modifications not checked) [Kallikrein (hK2) peptide …, position 72, 9 amino acids]

IC50 [7]: 26 nM | IC50 [5]: 0.4 nM | IC50 [4]: 5 nM | IC50 [6]: 57 nM
Binder: VLAGGFFLV (modifications not checked) [peptide 1389.20 (PSM.27.V9)]

binding affinity ratio (IC50 of standard peptide / IC50 of test peptide) [1]: 0.14
Binder: MLLRLSEPAEL (modifications not checked) [PSA peptide … (position 118, 11 amino acids)]

binding affinity ratio [7, 9]: 0.0005 | binding affinity ratio [4, 9]: 0.0092 | binding affinity ratio [6, 10]: 0.0002
Binder: STCSGDSGGPL (modifications not checked) [PSA peptide … (position 203, 11 amino acids)]

binding affinity ratio (IC50 of standard peptide / IC50 of test peptide) [1]: 0.0001
Binder: LVHPQWVL (modifications not checked) [Kallikrein (hK2) peptide LVHPQWVL (position 54, 8 amino acids)]

IC50 [5]: 0.8 nM | IC50 [4]: 1.7 nM | IC50 [6]: 7.6 nM
Binder: MMNDQLMFL (modifications not checked) [peptide 1126.01 (PSM.663)]

binding affinity ratio (ratio to standard peptide) [3]: 0.0003
Binder: QLGMEQHYEL (modifications not checked) [PAP peptide …, position 72, 10 amino acids]

IC50 [4, 9]: 9.5 nM
Binder: KLQCVDLHVV (modifications not checked) [peptide 1419.24 (PSA.166.V10)]

binding affinity ratio (IC50 of the standard peptide / IC50 of the test peptide) [7]: -0.0001 | binding affinity ratio (IC50 of the standard peptide / IC50 of the test peptide) [5]: 0.0009 | binding affinity ratio (IC50 of the standard peptide / IC50 of the test peptide) [4]: 0.0003 | binding affinity ratio (IC50 of the standard peptide / IC50 of the test peptide) [6]: 0.0003
Binder: YASGWGSI (modifications not checked) [PSA 149 peptide YASGWGSI]

binding affinity ratio (IC50 of standard peptide / IC50 of test peptide) [8]: 0.0006
Binder: LGIASGRAR (modifications not checked) [PSM 528 peptide …]

binding affinity ratio (IC50 of standard peptide / IC50 of test peptide) [7]: 0.0002 | binding affinity ratio (IC50 of standard peptide / IC50 of test peptide) [5]: 0.0006 | binding affinity ratio (IC50 of standard peptide / IC50 of test peptide) [4]: 0.0017 | binding affinity ratio (IC50 of standard peptide / IC50 of test peptide) [6]: -0.0001
Binder: PAKITDVVKVL (modifications not checked)

binding affinity ratio [2]: 0.0001
Binder: DLHVISNDVCA (modifications not checked) [… (PSA, position 171, 11 amino acids)]

binding affinity ratio (IC50 of standard peptide / IC50 of test peptide) [8]: 0.0003
Binder: FSERLQDFDK (modifications not checked) [… (PSM, position 646, 10 amino acids)]

binding affinity ratio (IC50 of the standard peptide / IC50 of the test peptide) [7]: 0.0001 | binding affinity ratio (IC50 of the standard peptide / IC50 of the test peptide) [5]: -0.0001 | binding affinity ratio (IC50 of the standard peptide / IC50 of the test peptide) [6]: -0.0001
Binder: YTKVVHYRKWI (modifications not checked) [Kallikrein 243 peptide …]

binding affinity ratio [7]: 0.0001 | binding affinity ratio [4]: 0.0009
Binder: KVLGLPTQEPA (modifications not checked) [… (Kallikrein, position 137, 11 amino acids)]

binding affinity ratio (ratio to standard peptide) [3]: 0.0001
Binder: QVLVASRGRAV (modifications not checked) [PSA peptide …, position 35, 11 amino acids]

binding affinity ratio (ratio to standard peptide) [3]: 0.0006
Binder: QLAGAKGVIL (modifications not checked) [PSM peptide …, position 218, 10 amino acids]

binding affinity ratio (ratio to standard peptide) [3]: 0.0001
Binder: QVLVASRGRA (modifications not checked) [PSA peptide …, position 35, 10 amino acids]

binding affinity ratio (IC50 of standard peptide / IC50 of test peptide) [1, 9]: 0.002
Binder: LVLSIALSV (modifications not checked) [Kallikrein (hK2) peptide … (position 4, 9 amino acids)]

binding affinity ratio (ratio to standard peptide) [3]: 0.0002
Binder: QMALDVYNGL (modifications not checked) [PAP peptide …, position 297, 10 amino acids]

binding affinity ratio (IC50 of standard peptide / IC50 of test peptide) [8, 9]: 0.0002
Binder: LGEYIRKRY (modifications not checked)

binding affinity ratio (ratio to standard peptide) [3]: 0.0001
Binder: PTQEPALGT (modifications not checked) [Kallikrein (hK2) peptide …, position 142, 9 amino acids]

binding affinity ratio (IC50 of the standard peptide / IC50 of the test peptide) [7]: 0.0001 | binding affinity ratio (IC50 of the standard peptide / IC50 of the test peptide) [5]: -0.0001 | binding affinity ratio (IC50 of the standard peptide / IC50 of the test peptide) [6]: -0.0001
Binder: YTKVVHYRKWI (modifications not checked) [PSA 239 peptide …]

binding affinity ratio (IC50 of standard peptide / IC50 of test peptide) [1]: 0.0001
Binder: LVHPQWVLT (modifications not checked) [PSA peptide … (position 50, 9 amino acids)]

IC50 [7]: 6.8 nM | IC50 [5]: 3 nM | IC50 [4]: 18 nM | IC50 [6]: 65 nM
Binder: FLTLSVTWIGV (modifications not checked) [peptide 1419.27 (PSA.3.V11)]
